Tests used:
murine EphrinB2-His = molecular target: T1, murine EphrinB2-His (murine, UniProt P52800 29-232, limits assumed); assay: SPR BIAcore-3000, antibody coupled to CM5 chip (~500 RU), EphrinB2-His injected, 25 C
T1 construct: Soluble His-tagged protein; also called His-tagged murine EphrinB2; murine antigen; not shown: His tag
Experimental: (§1) To determine the binding affinity of mouse anti-ephrinB2 Mabs, surface plasmon resonance (SRP) measurement with a BIAcore™-3000 was used (BIAcore, Inc., Piscataway, N.J.). Briefly, carboxymethylated dextran biosensor chips (CMS, BIAcore Inc.) were activated with N-ethyl-N′- (3-dimethylaminopropyl)-carbodiimide hydrochloride (EDC) and N-hydroxysuccinimide (NHS) according to the supplier's instructions. Anti-EphrinB2 antibody was diluted with 10 mM sodium acetate, pH 4.8, into 5 ug/ml before injection at a flow rate of 5 ul/minute to achieve approximately 500 response units (RU) of coupled antibody. Next, 1M ethanolamine was injected to block unreacted groups. For kinetics measurements, two-fold serial dilutions of either human or murine EphrinB2-His molecules (0.7 nM to 500 nM) were injected in PBS with 0.05% Tween 20 at 25° C. at a flow rate of 25 ul/min. Association rates (kₒₙ) and dissociation rates (koff) were calculated using a simple one-to-one Langmuir binding model (BlAcore Evaluation Software version 3.2). The equilibrium dissociation constant (Kd) was calculated as the ratio koff/kₒₙ. “NA” signifies that the measurement was not performed.

human EphrinB2-His = molecular target: T2, human EphrinB2-His (human, UniProt P52799 28-229, limits assumed); assay: as above
T2 construct: Soluble His-tagged protein; also called His-tagged human EphrinB2; hEphrinB2; not shown: His tag
Experimental: as §1

T1 sequence (P52800 29-232 limits assumed): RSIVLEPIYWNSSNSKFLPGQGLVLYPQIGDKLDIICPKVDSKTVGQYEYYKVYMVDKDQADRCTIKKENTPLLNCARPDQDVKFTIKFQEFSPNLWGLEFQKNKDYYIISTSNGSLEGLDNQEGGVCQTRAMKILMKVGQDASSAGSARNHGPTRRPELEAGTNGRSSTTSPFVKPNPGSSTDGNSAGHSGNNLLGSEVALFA
T2 sequence (P52799 28-229 limits assumed): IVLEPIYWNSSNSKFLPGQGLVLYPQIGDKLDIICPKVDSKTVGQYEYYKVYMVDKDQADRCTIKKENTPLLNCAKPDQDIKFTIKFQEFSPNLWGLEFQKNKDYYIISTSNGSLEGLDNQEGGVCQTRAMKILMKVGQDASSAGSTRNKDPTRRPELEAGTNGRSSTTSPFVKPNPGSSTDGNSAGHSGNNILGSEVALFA

B1: anti-EphrinB2 monoclonal antibody clone 31.19 (antibody, V domains shown)
VH: EVQLVESGGGLVQPGGSLRLSCAASGFTITGSWIHWVRQAPGKGLEWVAVIYPNNGATDYADSVKGRFTISADTSKNTAYLQMNSLRAEDTAVYYCARTSAWAQLGAMDYWGQGTLVT
VL: DIQMTQSPSSLSASVGDRVTITCRASQDVSTAVAWYQQKPGKAPKLLIYSASFLYSGVPSRFSGSGSGTDFTLTISSLQPEDFATYYCQQSYTTPPTFGQGTKVEIKR
notes: Synthetic phage antibody on the humanized 4D5 framework; also called YW31.19; 31.19 antibody
Kd (murine EphrinB2-His): 0.23 nM | Kd (human EphrinB2-His): 5.2 nM

B2: anti-EphrinB2 monoclonal antibody clone 31.19.2D3 (antibody, V domains shown)
VH: EVQLVESGGGLVQPGGSLRLSCAASGFTVSSGWIHWVRQAPGKGLEWVAVIFHNKGGTDYADSVKGRFTISADTSKNTAYLQMNSLRAEDTAVYYCARTSAWAQLGAMDYWGQGTLVT
VL: DIQMTQSPSSLSASVGDRVTITCRASQDVSTAVAWYQQKPGKAPKLLIYSASFLYSGVPSRFSGSGSGTDFTLTISSLQPEDFATYYCEQTDSTPPTFGQGTKVEIKR
notes: also called YW31.19.2D3; 31.19.2D3 antibody
Kd (murine EphrinB2-His): 0.015 nM | Kd (human EphrinB2-His): 0.08 nM

B3: anti-EphrinB2 monoclonal antibody clone 31.19.1D8 (antibody, V domains shown)
VH: EVQLVESGGGLVQPGGSLRLSCAASGFTITGSWIHWVRQAPGKGLEWVAVIYPNNGATDYADSVKGRFTISADTSKNTAYLQMNSLRAEDTAVYYCARTSAWAQLGAMDYWGQGTLVT
VL: DIQMTQSPSSLSASVGDRVTITCRASQDVDSSLAWYQQKPGKAPKLLIYAASNLESGVPSRFSGSGSGTDFTLTISSLQPEDFATYYCQQSDDNPFTFGQGTKVEIKR
notes: also called YW31.19.1D8; 31.19.1D8 antibody
Kd (murine EphrinB2-His): 0.017 nM | Kd (human EphrinB2-His): 0.07 nM

Source: patent US20170275359A1 (Genentech, published 2017)
